Laboratory results reported in PMC12366243, “Genomic context analysis enables the discovery of an unusual NAD‐dependent racemase in phosphonate catabolism” (The Febs Journal, 2025).
Blank lines part the entries; values can stand above or below the compound they belong to.

Key:
[1] = test system: T1, NC[C@@H](O)P(=O)(O)O; experiment: purified protein; assay type: biochemical, Mesorhizobium plurifarium; settings: 1 mM NAD+, 5 mM MgCl2, 50 mM TEA-HCl pH 8.0, 25 °C, S-HAEP to R-HAEP
T1 construct: full-length, codon-optimized synthetic gene in pET24-C-His-tag (NdeI/NotI), C-terminal His tag kept; E. coli Tuner (DE3)

[2] = test system: T2, NC(=O)c1ccc[n+]([C@@H]2O[C@H](COP(=O)(O)OP(=O)(O)OC[C@H]3O[C@@H](n4cnc5c(N)ncnc54)[C@H](O)[C@@H]3O)[C@@H](O)[C@H]2O)c1; experiment: purified protein; assay type: biochemical, Mesorhizobium plurifarium; settings: 1 mM S-HAEP, 5 mM MgCl2, 50 mM TEA-HCl pH 8.0, 25 °C, exogenous NAD+, varied: cofactor
T2 construct: full-length, codon-optimized synthetic gene in pET24-C-His-tag (NdeI/NotI), C-terminal His tag kept; E. coli Tuner (DE3)

[3] = biological target: T3, PbfF (2-amino-1-hydroxyethylphosphonate racemase; HAEP racemase) (Mesorhizobium plurifarium, UniProt A0A090EUR6); experiment: continuous coupled assay (PbfA, PhnX, NADP-dependent ADH), NADPH decrease at […] nm; assay type: biochemical
T3 construct: full-length, codon-optimized synthetic gene in pET24-C-His-tag (NdeI/NotI), C-terminal His tag kept; E. coli Tuner (DE3)
T3 sequence (A0A090EUR6 1-336): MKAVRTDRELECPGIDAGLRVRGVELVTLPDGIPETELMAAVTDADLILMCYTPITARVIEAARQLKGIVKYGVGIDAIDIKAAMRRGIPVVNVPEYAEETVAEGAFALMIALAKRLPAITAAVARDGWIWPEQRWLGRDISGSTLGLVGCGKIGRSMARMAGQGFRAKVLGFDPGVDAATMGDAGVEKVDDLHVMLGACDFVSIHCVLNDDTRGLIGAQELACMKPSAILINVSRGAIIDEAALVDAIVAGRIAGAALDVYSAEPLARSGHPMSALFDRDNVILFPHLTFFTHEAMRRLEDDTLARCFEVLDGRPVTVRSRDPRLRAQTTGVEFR

[4] = biological target: 2-amino-1-hydroxyethylphosphonate racemase (PbfF) from Mesorhizobium plurifarium (Mesorhizobium plurifarium); experiment: SEC; analytical SEC, data not shown; 50 uL of 108 uM PbfF (monomer concentration) on Superdex 200 Increase 5/150 GL; 50 mM Tris, 200 mM NaCl, pH 7.9; 0.3 mL/min; calibrated with proteins of known molecular mass

Compound: PbfF (2-amino-1-hydroxyethylphosphonate racemase; HAEP racemase) (Mesorhizobium plurifarium)
Km [1]: 530 µM
kcat [1]: 6.6 s⁻¹
K0.5 [2]: 200 µM

inhibition at 60 µM [3]: ~50%
Compound: NC(=O)C1=CN([C@@H]2O[C@H](COP(=O)(O)OP(=O)(O)OC[C@H]3O[C@@H](n4cnc5c(N)ncnc54)[C@H](O)[C@@H]3O)[C@@H](O)[C@H]2O)C=CC1 [NADH]

stoichiometry N [4]: 2
Compound: 2-amino-1-hydroxyethylphosphonate racemase (PbfF) from Mesorhizobium plurifarium (enzyme)
